Article PMC8234197

Legend:
[1] = target: MsuD^ΔC–16 (MsuD with the last 16 residues of the C terminus deleted) (Pseudomonas fluorescens)
[2] = target: MsuD^ΔC–16 (MsuD with the last 16 residues of the C terminus deleted) (Pseudomonas fluorescens); assay: SEC; analytical gel filtration, Enrich SEC 650 10 × 300 column, 4 °C, 50 mM sodium phosphate, 150 mM NaCl, pH 7.2, with high-molecular-weight standards
[3] = target: alkanesulfonate monooxygenase MsuD from Pseudomonas fluorescens (wildtype) (Pseudomonas fluorescens)
[4] = target: alkanesulfonate monooxygenase MsuD from Pseudomonas fluorescens (wildtype) (Pseudomonas fluorescens); assay: SEC; analytical gel filtration, Enrich SEC 650 10 × 300 column, 4 °C, 50 mM sodium phosphate, 150 mM NaCl, pH 7.2, with high-molecular-weight standards
[5] = target: alkanesulfonate monooxygenase MsuD from Pseudomonas fluorescens (wildtype) (Pseudomonas fluorescens); assay: crystal structure; cocrystal with FMN and MS− (P6_1, four chains per asymmetric unit); unliganded and FMN- or FMN/MS−-soaked crystals (P2_1, two tetramers per asymmetric unit)

sulfite formation from MS− in a coupled reaction with MsuE (DTNB assay) (µmol/min/µmol enzyme) [1]	stoichiometry N [2]	sulfite formation from MS− in a coupled reaction with MsuE (DTNB assay), wildtype under the conditions of the MsuD^ΔC–16 test (µmol/min/µmol enzyme) [3]	stoichiometry N [4]	stoichiometry N [5]	Substance
0.45	2	–	–	–	MsuD^ΔC–16 (MsuD with the last 16 residues of the C terminus deleted) (domain or fragment)
–	–	5.7	4	4	alkanesulfonate monooxygenase MsuD from Pseudomonas fluorescens (wildtype) (enzyme)
